Patent US7223734B2, “Plasma protein-binding ligands” (The American National Red Cross, priority 2002, dated 2007)
Non-standard residues stand in square brackets, D forms with d. No end group written: not given here. 2Nal = N[C@@H](Cc1ccc2ccccc2c1)C(=O)O

Assays:
[1] = molecular target: T1, vWF/fVIII (Homo sapiens, UniProt P04275); assay: Removal of vWF/fVIII from plasma on D-EADna2′ED resin, fVIII chromogenic assay (Example 11); format: binding; parameters: from tissue; host or cells: pooled human plasma; conditions: for FVIII / Total FVIII: Chromogenic Assay
Protocol: (§1) Pooled human plasma (20 ml) was added to 0.8 ml of resin and incubated for 30 minutes while gently rotating. Resin was settled under gravity or by short gentle centrifugation, and the supernatant was collected (the equivalent of “flow-through” of the previous examples). The resin was then packed into an Omni column and the chromatography was completed using the ÄKTAExplorer system. The flow rate was kept constant at 0.4 ml/min (LV=31 cm/h; retention time=2 minutes). After washing of the resin with EQ buffer to baseline, the bound proteins were eluted from the resin with 10 column volumes (CV) of 0.5 M NaCl, followed by 10 CVs of 0.75 M NaCl, 1.0 M NaCl/1% Tween (all in 0.02 M sodium citrate, pH 7.0) and 2.0 M guanidine. Twenty-five microliters of 0.4 M calcium chloride was added to each fraction collected, and the fractions were evaluated by OD reading and Western Blots for vWF and fVIII antigen. The fVIII activity of pooled fractions was determined by chromogenic and coagulation assays.

[2] = molecular target: T1, vWF/fVIII; assay: Removal of vWF/fVIII from plasma on D-EADna2′ED resin, fVIII coagulation assay (Example 11); format: binding; parameters: from tissue; host or cells: pooled human plasma
Protocol: as §1

[3] = molecular target: T1, vWF/fVIII; assay: Primary screening of 6-mer library for vWF/fVIII ligands; format: binding; parameters: from tissue; host or cells: human plasma (first round also purified vWF of unstated origin); conditions: bead screening, immunodetection
Protocol: The ToyoPearl 650-M amino resin displaying the library of D- or L-hexamers ([…]) was incubated either with plasma or purified vWF in TBS buffer or EQ buffer. The captured proteins were subsequently eluted stepwise from the resin beads with sodium chloride (0.5 M, 1.0 M, 2.0 M) and guanidine (2–6 M). The target proteins were detected immunologically after transfer onto a PVDF membrane. One of three detection strategies was employed to detect target protein binding. A one-step immunodetection assay using a specific HRP-conjugated polyclonal sheep anti-human vWF antibody was performed. A differential-subtractive immuno-detection assay entailed detecting proteins transferred onto membranes with specific HRP-conjugated polyclonal sheep anti-human vWF antibody in 1:10,000 dilution (AHP062P; Serotec) followed by exposure to chemiluminescence substrate ECLPlus. Membranes were stripped and re-probed with rabbit anti-human albumin antibody (No. A0433, Lot No. 031K4897 from Sigma) followed by secondary alkaline phosphatase-labeled goat anti rabbit antibody (Tropix). Following film development, films were aligned and dots that appeared on films for vWF and on albumin films were deemed background signal. Dots positive for vWF but not for albumin were considered positive. A detection assay using radio-labeled antibody also was performed. Freshly I125-radiolabeled monoclonal anti-human vWF antibody, 101.104 (VWFAE; Enzyme Research) in dilution 1:250 in hSA-Hepes-0.14 M NaCl-Tween buffer was used for detection. After washing, membranes were exposed to Kodak films for 48 hrs at −80° C. Positive beads were picked and prepared for re-probing.
All beads collected from several gels were pooled in the same tube, washed with water and incubated in 8 M Guanidine to remove remaining proteins before re-probing. After extensive washing with water and citrate buffer, the resin beads were blocked with 3% human albumin for 2 hours and incubated with human plasma. Resin beads were immobilized in agarose gels (6 cm×7 cm) and target protein was transferred to a PVDF membrane in 2 M NaCl for 20 hours. Membranes were blocked, incubated with 101.104 anti-vWF antibody, and detected with secondary goat/anti-mouse-HRP. In some experiments, sheep anti-human vWF antibody conjugated with HRP was used for detection. Positive beads were picked, washed, and the attached ligands were sequenced.
For some re-probing experiments, resin beads linked to target proteins were visualized by adding specific antibody and color substrate to facilitate further alignment. Detection of a target protein bound to the resin beads by non-labeled monoclonal antibody 101.104 anti-vWF was used followed by goat/anti-mouse antibody conjugated with alkaline phophatase and FastRed prior to immobilizing beads in the agarose gel. Additional substrate CDPStar was applied directly onto a gel with immobilized beads, and the gel was exposed to a Kodak film. Dark spots on the film were correlated with red spots on the gel to ensure appropriate alignment. The proteins from resin beads immobilized in the gel were transferred onto a membrane and developed again with radiolabeled monoclonal antibody against vWF. The films and gel were aligned, and resin beads that appeared positive in all stages were picked, washed, and attached ligands sequenced.

[4] = molecular target: T2, API (Homo sapiens, UniProt P01009); assay: Primary screening of 6-mer library for API-binding ligands; conditions: bead screening, immunodetection / radiolabel
T2 construct: from tissue; host or cells: human plasma (whole, fibrinogen-depleted or F1-Apo-depleted)
T2 sequence (P01009 25-418): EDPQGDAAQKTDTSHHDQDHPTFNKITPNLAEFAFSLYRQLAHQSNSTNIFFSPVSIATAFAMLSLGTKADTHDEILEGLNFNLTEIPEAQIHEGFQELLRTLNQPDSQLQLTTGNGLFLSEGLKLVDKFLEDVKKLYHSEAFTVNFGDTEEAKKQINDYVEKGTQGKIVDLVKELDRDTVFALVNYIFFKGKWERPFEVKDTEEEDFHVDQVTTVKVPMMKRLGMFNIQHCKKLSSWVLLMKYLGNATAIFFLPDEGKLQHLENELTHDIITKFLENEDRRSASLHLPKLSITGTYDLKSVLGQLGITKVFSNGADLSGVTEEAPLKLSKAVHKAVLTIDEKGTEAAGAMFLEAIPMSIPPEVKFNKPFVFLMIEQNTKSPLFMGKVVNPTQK
Protocol: Peptide libraries attached to Toyopearl-AF Amino 650M resin or Tentagel resin were evaluated with 14C-labeled fibrinogen and API. All steps were performed at room temperature. Specifically, 20 mg of Toyopearl resin beads or 40 mg of Tentagel resin beads were suspended in 20% methanol for a minimum of 2 hours in 15 ml conical polypropylene tubes (Corning). After rinsing with distilled water, the resin beads were equilibrated in 0.15 M NaCl, 0.020 M sodium citrate, pH 7.3. The resin beads were then blocked for 2 hours with 1% casein (Sigma) in 0.15M NaCl, 0.020M sodium citrate, pH 7.3. Following blocking, the resin beads were centrifuged and the supernatant removed. A solution containing 1 mM of C^14-labeled fibrinogen or 30 μM of C^14-labeled API was applied to the resin beads in the blocking solution in the presence of 0.1% Tween-20 (Sigma). The materials were incubated for 2 hours. The resin beads were washed with 0.15 M NaCl, 0.020 M sodium citrate, 0.05% Tween-20, pH 7.3, in a batch method (fibrinogen ligands) or in disposable BioRad 10 ml columns (API ligands) until radiation counts reached the background level of less than 40 DPM. The resin beads were divided into separate tubes to obtain approximately 5–10 mg of resin beads per sheet. This was accomplished by mixing each aliquot of resin beads with 20–22 ml of 1% low melting agarose solution (Sigma) at less than 40° C., and rapidly pouring the mixture onto GelBond® film sheets (BMA Cat. No. 53749, 16×18 cm; Cat. No. 53759, 12.5×24.5 cm). Spreading of the resin beads to the edge of the gel sheets was prevented by creating frames (about 23 cm×about 10 cm or about 15 cm×about 15 cm) with several layers of masking tape. About 20–22 ml of resin bead-agarose mixture was plated on each GelBond sheet. Special care was taken to spread the beads in an even monolayer to facilitate identification and isolation of individual “hot” beads. The agarose gel was then air-dried overnight and placed, bead side down, on X-ray film (Kodak Biomax MR). The agarose and autoradiography film were exposed for 4–14 days followed by a second exposure of 7 days in an about 20 cm×about 25 cm stainless steel cassette. Afterwards, the films were taped together and marked with several staple holes to ensure proper alignment of beads in agarose to film. After the films were developed, the positive beads that appeared on both films were identified under the microscope and picked by aligning the developed film(s) and agarose gel via the staple holes. Beads to be sequenced were carefully picked by cutting a square trench around the bead with a scalpel, and hydrating this area with distilled water. […]

[5] = system: paraoxonase; conditions: resin bead suspension
Protocol: Paraoxonase binding to a WWLHAN (SEQ ID NO: 56)-displaying resin was evaluated according to the following protocol. Rabbit serum diluted 1/10 times with PBS ([…]) was incubated in a rotating Eppendorf tube with 50 μl of D-WWLHAN (SEQ ID NO: 56)-displaying resin suspension containing approximately […] of resin. The resin was previously soaked in 20% methanol overnight and washed 3 times with PBS to remove the methanol traces and resuspended in paraoxonase assay buffer (20 mM Tris pH 8.0, 150 mM NaCl, and 2 mM CaCl2). After 1 hour incubation at 37° C., resin beads were precipitated by centrifugation at 8000 g for 1 min in an Eppendorf microcentrifuge. Supernatants were transferred into separate Eppendorf tubes and resin bead pellets were resuspended in equal volumes of paraoxonase assay buffer. Paraoxonase activity of resin bead suspensions and supernatant solutions was measured. In particular, 100 μl of paraoxonase assay buffer containing 100 μm of DEPFMU (a fluorogenic substrate for paraoxonase detection) was mixed with […] of supernatant or 10 μl of resin bead suspension, or the original serum solution in a standard microtiter plate well. After thorough mixing, the plate solution was incubated for 20 minutes at 37° C. Hydrolysis of DEPFMU was quantified by measuring the fluorescence level at […] using a commercial fluorometer. The level of fluorescence correlates with the level of 6,8-difluoro-4-methylumbelliferyl released from DEPFMU as a result of paraoxonase-mediated hydrolysis. The actual amount of 6,8-difluoro-4-methylumbelliferyl released in the assay can be calibrated with a known amount of 6,8-difluoro-4-methylumbelliferyl.
Several different D-WWLHIN (SEQ ID NO: 33) analogs were screened for the ability to bind to paraoxonase under the conditions described in Example 7. For this experiment, the following resins were tested: WWLHAN (SEQ ID NO: 56), AWLHIN (SEQ ID NO: 59), WALHIN (SEQ ID NO: 60), WWAHIN (SEQ ID NO: 61), WWLHIA (SEQ ID NO: 63), WYLHIN (SEQ ID NO: 35), WWLFIN (SEQ ID NO: 36), and na1′WLHIN (SEQ ID NO: 40).

EADna2′ED (EAD[2Nal]ED; not fully specified; also: D-amino acids, positions not given here) [D-EADna2′ED]
FVIII ([1]; Elution 1 (0.75 M NaCl)): 0.46 IU/ml | Total FVIII ([1]; Elution 1 (0.75 M NaCl)): 4.6 IU | FVIII ([1]; Elution 2 (1.0 M NaCl)): 0 IU/ml | Total FVIII ([1]; Elution 2 (1.0 M NaCl)): 0 IU | Total FVIII ([1]; Flow-Through, load 21.4 IU): 1.6 IU | FVIII ([1]; Flow-Through, plasma load 20 ml, 1.07 IU/ml): 0.08 IU/ml | FVIII ([1]; Wash (0.5 M NaCl)): 0.12 IU/ml | Total FVIII ([1]; Wash (0.5 M NaCl)): 1.2 IU | binding of vWF/fVIII by the resin ([1]; plasma, fVIII activity and Western Blot for vWF): binds vWF/fVIII | FVIII ([2]; Elution 1 (0.75 M NaCl)): 0.39 IU/ml | Total FVIII ([2]; Elution 1 (0.75 M NaCl)): 3.9 IU | FVIII ([2]; Elution 2 (1.0 M NaCl)): 0 IU/ml | Total FVIII ([2]; Elution 2 (1.0 M NaCl)): 0 IU | Total FVIII ([2]; Flow-Through, load 8.46 IU): 1.6 IU | FVIII ([2]; Flow-Through, plasma load 0.423 IU/ml): 0.08 IU/ml | FVIII ([2]; Wash (0.5 M NaCl)): 0 IU/ml | Total FVIII ([2]; Wash (0.5 M NaCl)): 0 IU | identified as vWF/fVIII binding peptide from the 6-mer library [3]: vWF/fVIII binding

EDSWDV
identified as vWF/fVIII binding peptide from the 6-mer library [3]: vWF/fVIII binding

HFDLHR
identified as API-binding peptide ligand from the 6-mer library [4]: API-binding

LEDna2′EE (LED[2Nal]EE)
identified as vWF/fVIII binding peptide from the 6-mer library [3]: vWF/fVIII binding

QWFPEK
identified as vWF/fVIII binding peptide from the 6-mer library [3]: vWF/fVIII binding

WALHIN [D-WALHIN]
paraoxonase activity of bead fractions [5]: Significant activity

WWAHIN [D-WWAHIN]
paraoxonase activity of bead fractions [5]: Significant activity

WWLFIN [D-WWLFIN]
paraoxonase activity of bead fractions [5]: Significant activity

YHLGWL
identified as vWF/fVIII binding peptide from the 6-mer library [3]: vWF/fVIII binding

YLHYQT
identified as vWF/fVIII binding peptide from the 6-mer library [3]: vWF/fVIII binding

YVDEDD
identified as vWF/fVIII binding peptide from the 6-mer library [3]: vWF/fVIII binding
